# Results reported in PMC9482650, “Quantitative fragmentomics allow affinity mapping of interactomes” (Nature Communications, 2022).
# T1: SHANK1, Q9Y566
# T1 sequence (Q9Y566 658-767, limits assumed, looked up): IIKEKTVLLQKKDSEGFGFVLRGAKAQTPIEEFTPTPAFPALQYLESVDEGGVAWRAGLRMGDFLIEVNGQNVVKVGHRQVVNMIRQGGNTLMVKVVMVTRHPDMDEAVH
# T2: DLG3_3, Q92796
# T2 sequence (Q92796 374-475, limits assumed, looked up): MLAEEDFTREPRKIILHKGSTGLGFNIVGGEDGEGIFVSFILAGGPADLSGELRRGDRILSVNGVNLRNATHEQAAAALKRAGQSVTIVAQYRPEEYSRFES
# T3: MPP2, Q14168
# T3 sequence (Q14168 180-250, limits assumed, looked up): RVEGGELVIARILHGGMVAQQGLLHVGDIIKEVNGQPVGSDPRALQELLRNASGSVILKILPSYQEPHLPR
# T4: MPDZ_12, O75970
# T4 sequence (O75970 1857-1958, limits assumed, looked up): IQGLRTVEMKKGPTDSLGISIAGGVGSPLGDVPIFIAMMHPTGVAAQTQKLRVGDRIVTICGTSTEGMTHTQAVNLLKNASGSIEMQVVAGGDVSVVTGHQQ
# T5: MPP6, Q9NZW5
# T5 sequence (Q9NZW5 125-219, limits assumed, looked up): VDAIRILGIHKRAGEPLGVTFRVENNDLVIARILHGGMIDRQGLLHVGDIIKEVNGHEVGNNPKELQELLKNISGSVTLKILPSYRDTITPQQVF
# T6: APBA3_1, O96018
# T6 sequence (O96018 389-490, limits assumed, looked up): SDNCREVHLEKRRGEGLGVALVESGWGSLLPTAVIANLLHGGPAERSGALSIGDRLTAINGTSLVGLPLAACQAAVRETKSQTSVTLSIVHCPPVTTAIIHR
# T7: LNX2_2, Q8N448
# T7 sequence (Q8N448 334-432, limits assumed, looked up): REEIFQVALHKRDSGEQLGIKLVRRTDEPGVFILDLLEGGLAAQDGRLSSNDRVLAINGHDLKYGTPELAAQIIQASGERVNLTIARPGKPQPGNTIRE
# T8: DFNB31_3, Q9P202
# T8 sequence (Q9P202 811-907, limits assumed, looked up): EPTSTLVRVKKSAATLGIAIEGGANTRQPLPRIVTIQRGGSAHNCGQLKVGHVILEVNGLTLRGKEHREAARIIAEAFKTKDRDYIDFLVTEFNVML
# T9: PDZD7_3, Q9H5P4
# T9 sequence (Q9H5P4 857-944, limits assumed, looked up): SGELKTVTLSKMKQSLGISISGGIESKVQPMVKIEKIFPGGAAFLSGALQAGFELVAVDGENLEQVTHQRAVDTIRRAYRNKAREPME
# T10: DFNB31_1, Q9P202
# T10 sequence (Q9P202 135-233, limits assumed, looked up): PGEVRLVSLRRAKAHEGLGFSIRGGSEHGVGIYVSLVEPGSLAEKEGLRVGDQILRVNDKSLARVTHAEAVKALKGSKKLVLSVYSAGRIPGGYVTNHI
# Experiments:
# Assay in all cases: holdup assay
# Set-up in all cases: key: below the threshold = too weak to quantify, mostly under pKd 3.1 to 4
# Details in all cases: plain residues with an end cap or a label only (N-terminal biotin on a linker: ado-ado)
# Inadl_8, Q8NI35 = biological target: Inadl_8, Q8NI35
# Sequence of Inadl_8, Q8NI35 (Q8NI35 1425-1530): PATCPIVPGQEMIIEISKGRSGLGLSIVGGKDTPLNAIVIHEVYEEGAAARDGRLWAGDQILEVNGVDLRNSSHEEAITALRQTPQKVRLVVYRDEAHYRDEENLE
# SHANK1, Q9Y566 = biological target: T1, SHANK1, Q9Y566
# Inadl_1, Q8NI35 = biological target: Inadl_1, Q8NI35
# Sequence of Inadl_1, Q8NI35 (Q8NI35 113-229): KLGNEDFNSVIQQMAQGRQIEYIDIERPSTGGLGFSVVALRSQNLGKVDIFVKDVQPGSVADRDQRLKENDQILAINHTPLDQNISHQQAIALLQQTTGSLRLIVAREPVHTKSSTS
# TJP1_3, Q07157 = biological target: TJP1_3, Q07157
# Sequence of TJP1_3, Q07157 (Q07157 416-512): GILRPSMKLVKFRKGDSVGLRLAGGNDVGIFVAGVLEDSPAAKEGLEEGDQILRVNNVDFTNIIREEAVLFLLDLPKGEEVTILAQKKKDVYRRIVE
# DLG3_3, Q92796 = biological target: T2, DLG3_3, Q92796
# MPP2, Q14168 = biological target: T3, MPP2, Q14168
# MPDZ_12, O75970 = biological target: T4, MPDZ_12, O75970
# MAGI2_4, Q86UL8 = biological target: MAGI2_4, Q86UL8
# Sequence of MAGI2_4, Q86UL8 (Q86UL8 772-865): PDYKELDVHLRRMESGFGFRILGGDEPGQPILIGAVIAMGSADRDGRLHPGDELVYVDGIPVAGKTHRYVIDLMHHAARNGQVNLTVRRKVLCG
# GRIP2_3, Q9C0E4 = biological target: GRIP2_3, Q9C0E4
# Sequence of GRIP2_3, Q9C0E4 (Q9C0E4 238-339): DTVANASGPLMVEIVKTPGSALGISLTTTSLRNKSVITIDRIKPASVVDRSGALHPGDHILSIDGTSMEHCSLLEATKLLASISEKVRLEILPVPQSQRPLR
# LDB3, O75112 = biological target: LDB3, O75112
# Sequence of LDB3, O75112 (O75112 1-94): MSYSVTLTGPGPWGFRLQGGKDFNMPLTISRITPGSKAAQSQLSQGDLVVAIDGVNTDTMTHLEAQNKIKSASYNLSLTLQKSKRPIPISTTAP
# CASK, O14936 = biological target: CASK, O14936
# Sequence of CASK, O14936 (O14936 487-570): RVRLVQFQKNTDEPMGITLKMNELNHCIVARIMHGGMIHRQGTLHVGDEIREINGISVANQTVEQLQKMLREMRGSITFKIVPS
# MPP6, Q9NZW5 = biological target: T5, MPP6, Q9NZW5
# APBA3_1, O96018 = biological target: T6, APBA3_1, O96018
# DLG4_2, P78352 = biological target: DLG4_2, P78352
# Sequence of DLG4_2, P78352 (P78352 155-259): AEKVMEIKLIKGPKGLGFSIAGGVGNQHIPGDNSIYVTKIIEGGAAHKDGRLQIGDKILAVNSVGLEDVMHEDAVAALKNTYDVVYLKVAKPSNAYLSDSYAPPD
# LNX2_2, Q8N448 = biological target: T7, LNX2_2, Q8N448
# GRIP2_4, Q9C0E4 = biological target: GRIP2_4, Q9C0E4
# Sequence of GRIP2_4, Q9C0E4 (Q9C0E4 446-548): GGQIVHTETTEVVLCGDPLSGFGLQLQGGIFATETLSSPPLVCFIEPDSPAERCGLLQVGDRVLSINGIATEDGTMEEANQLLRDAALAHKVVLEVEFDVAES
# PTPN3, P26045 = biological target: PTPN3, P26045
# Sequence of PTPN3, P26045 (P26045 505-587): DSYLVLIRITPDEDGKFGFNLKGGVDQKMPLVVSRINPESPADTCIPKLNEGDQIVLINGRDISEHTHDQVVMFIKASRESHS
# DFNB31_3, Q9P202 = biological target: T8, DFNB31_3, Q9P202
# IL16_3, Q14005 = biological target: IL16_3, Q14005
# Sequence of IL16_3, Q14005 (Q14005 1107-1207): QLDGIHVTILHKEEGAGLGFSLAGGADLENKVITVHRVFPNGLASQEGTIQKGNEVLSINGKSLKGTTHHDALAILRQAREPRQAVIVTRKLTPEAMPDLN
# DLG4_1, P78352 = biological target: DLG4_1, P78352
# Sequence of DLG4_1, P78352 (P78352 62-152): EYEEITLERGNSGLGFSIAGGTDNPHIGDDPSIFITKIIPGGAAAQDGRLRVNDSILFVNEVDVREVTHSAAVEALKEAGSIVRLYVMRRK
# GRIP2_5, Q9C0E4 = biological target: GRIP2_5, Q9C0E4
# Sequence of GRIP2_5, Q9C0E4 (Q9C0E4 544-642): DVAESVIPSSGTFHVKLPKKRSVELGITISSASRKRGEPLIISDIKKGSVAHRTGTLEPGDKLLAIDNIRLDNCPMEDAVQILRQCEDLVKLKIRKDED
# MAGI2_6, Q86UL8 = biological target: MAGI2_6, Q86UL8
# Sequence of MAGI2_6, Q86UL8 (Q86UL8 1141-1229): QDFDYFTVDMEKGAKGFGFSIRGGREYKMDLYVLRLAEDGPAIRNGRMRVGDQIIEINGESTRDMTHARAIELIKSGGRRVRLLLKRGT
# LIMK2, P53671 = biological target: LIMK2, P53671
# Sequence of LIMK2, P53671 (P53671 143-248): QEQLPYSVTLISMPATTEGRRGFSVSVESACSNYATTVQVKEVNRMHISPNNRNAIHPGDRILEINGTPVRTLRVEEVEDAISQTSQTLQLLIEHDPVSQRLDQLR
# PDZD7_3, Q9H5P4 = biological target: T9, PDZD7_3, Q9H5P4
# FRMPD3, Q5JV73 = biological target: FRMPD3, Q5JV73
# Sequence of FRMPD3, Q5JV73 (Q5JV73 12-100): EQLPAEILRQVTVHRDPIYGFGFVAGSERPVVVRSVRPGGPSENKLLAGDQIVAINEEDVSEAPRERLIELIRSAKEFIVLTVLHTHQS
# DFNB31_1, Q9P202 = biological target: T10, DFNB31_1, Q9P202
# MAGI3_2, Q5TCQ9 = biological target: MAGI3_2, Q5TCQ9
# Sequence of MAGI3_2, Q5TCQ9 (Q5TCQ9 398-503): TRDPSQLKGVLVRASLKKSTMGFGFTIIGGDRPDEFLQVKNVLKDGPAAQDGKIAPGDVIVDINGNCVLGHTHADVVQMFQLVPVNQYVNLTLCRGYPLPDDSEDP
# GRIP2_6, Q9C0E4 = biological target: GRIP2_6, Q9C0E4
# Sequence of GRIP2_6, Q9C0E4 (Q9C0E4 648-740): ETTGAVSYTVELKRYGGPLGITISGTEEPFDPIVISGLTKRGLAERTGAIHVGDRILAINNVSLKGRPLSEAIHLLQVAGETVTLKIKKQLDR
# SCRIB_3, Q14160 = biological target: SCRIB_3, Q14160
# Sequence of SCRIB_3, Q14160 (Q14160 999-1103): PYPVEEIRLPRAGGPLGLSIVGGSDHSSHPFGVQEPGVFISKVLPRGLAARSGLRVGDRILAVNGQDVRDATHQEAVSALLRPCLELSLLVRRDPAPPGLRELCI
Binder,"pKd (Inadl_8, Q8NI35)","pKd (SHANK1, Q9Y566)","pKd (Inadl_1, Q8NI35)","pKd (TJP1_3, Q07157)","pKd (DLG3_3, Q92796)","pKd (MPP2, Q14168)","pKd (MPDZ_12, O75970)","pKd (MAGI2_4, Q86UL8)","pKd (GRIP2_3, Q9C0E4)","pKd (LDB3, O75112)","pKd (CASK, O14936)","pKd (MPP6, Q9NZW5)","pKd (APBA3_1, O96018)","pKd (DLG4_2, P78352)","pKd (LNX2_2, Q8N448)","pKd (GRIP2_4, Q9C0E4)","pKd (PTPN3, P26045)","pKd (DFNB31_3, Q9P202)","pKd (IL16_3, Q14005)","pKd (DLG4_1, P78352)",further results
"IQISELETNV [SLC1A7, O00341]",below the threshold,3.94,below the threshold,below the threshold,3.56,below the threshold,below the threshold,3.56,below the threshold,below the threshold,below the threshold,below the threshold,below the threshold,4.67,4.02,below the threshold,4.84,below the threshold,below the threshold,4.44,"pKd (GRIP2_5, Q9C0E4): below the threshold; pKd (MAGI2_6, Q86UL8): 4.31; pKd (LIMK2, P53671): below the threshold; pKd (PDZD7_3, Q9H5P4): 4.85; pKd (FRMPD3, Q5JV73): below the threshold; pKd (DFNB31_1, Q9P202): 4.19; pKd (MAGI3_2, Q5TCQ9): 4.28; pKd (GRIP2_6, Q9C0E4): below the threshold; pKd (SCRIB_3, Q14160): 4.74"
"TNSKQGETTV [FZD1, Q9UP38]",below the threshold,3.57,below the threshold,3.69,4.13,below the threshold,below the threshold,4.13,below the threshold,below the threshold,below the threshold,below the threshold,below the threshold,4.94,4.71,below the threshold,4.79,4.06,below the threshold,4.7,"pKd (GRIP2_5, Q9C0E4): below the threshold; pKd (MAGI2_6, Q86UL8): 4.03; pKd (LIMK2, P53671): below the threshold; pKd (PDZD7_3, Q9H5P4): 4.53; pKd (FRMPD3, Q5JV73): below the threshold; pKd (DFNB31_1, Q9P202): 3.77; pKd (MAGI3_2, Q5TCQ9): 4.94; pKd (GRIP2_6, Q9C0E4): below the threshold; pKd (SCRIB_3, Q14160): 4.38"
"QQGLLPHSSC [TYRO3, Q06418]",4.08,below the threshold,below the threshold,below the threshold,below the threshold,below the threshold,3.6,below the threshold,below the threshold,below the threshold,below the threshold,below the threshold,below the threshold,below the threshold,below the threshold,below the threshold,below the threshold,4.21,below the threshold,below the threshold,"pKd (GRIP2_5, Q9C0E4): below the threshold; pKd (MAGI2_6, Q86UL8): below the threshold; pKd (LIMK2, P53671): below the threshold; pKd (PDZD7_3, Q9H5P4): 3.9; pKd (FRMPD3, Q5JV73): below the threshold; pKd (DFNB31_1, Q9P202): below the threshold; pKd (MAGI3_2, Q5TCQ9): below the threshold; pKd (GRIP2_6, Q9C0E4): below the threshold; pKd (SCRIB_3, Q14160): below the threshold"
"KSRPENGTVC [TMEM178B, H3BS89]",below the threshold,below the threshold,below the threshold,below the threshold,below the threshold,below the threshold,below the threshold,3.74,below the threshold,below the threshold,below the threshold,below the threshold,below the threshold,below the threshold,4.32,below the threshold,3.77,3.99,below the threshold,below the threshold,"pKd (GRIP2_5, Q9C0E4): below the threshold; pKd (MAGI2_6, Q86UL8): below the threshold; pKd (LIMK2, P53671): below the threshold; pKd (PDZD7_3, Q9H5P4): below the threshold; pKd (FRMPD3, Q5JV73): below the threshold; pKd (DFNB31_1, Q9P202): below the threshold; pKd (MAGI3_2, Q5TCQ9): below the threshold; pKd (GRIP2_6, Q9C0E4): below the threshold; pKd (SCRIB_3, Q14160): 3.66"
